Experimental data as given in patent US20100297047A1, “ESTERS OF GLYCEROL AND THEIR USES IN COSMETIC AND PHARMACEUTICAL APPLICATIONS” (BIOPHIL ITALIA S.P.A., priority 2007, published 2010).

Experiment: Solubilisation of poorly soluble active ingredients in the Olea europea triglycerides/diglycerides mixture
Assay type: physicochemical
Description: Improved formulations have been prepared by solubilising lipophilic ingredients, which are known for their interesting cosmetic activity but also for their difficult usage due to their poor solubility and/or dispersion into common cosmetic matrixes.
Ceramides are major components (roughly 40%) of the lipidic layers of the epidermis barrier, which drive the balance between hydration and loss of water, having the important role of “cement” between the corneocytes, i.e. the brick cells forming the dermal layers. The high difficulty for the application of ceramides in cosmetics is their poor solubility: in order to solubilise them into esters, a heating step above 90° C. is normally required with possible damage of the ceramides.
The use of triglycerides/diglycerides mixture as a solubiliser has allowed the solubilisation of ceramide-3 also at high concentration (up to 50%) without excessive and long time heating steps, A liquid ingredient, easy to use by simple addition into the lipid phase of the cosmetic formulation, has been obtained so far.
Sericin is one of the two families of proteins constituting the pure silk secreted by the silkworm glands: its dimensions vary from 60 up to 500 kDa. […]

| concentration at which ceramide-3 is solubilised (triglycerides/diglycerides mixture as solubiliser, without excessive and long time heating steps) | Compound | dissolution of high molecular weight sericin (in mixtures of triglycerides/diglycerides from olive, compared with other commonly used vehicles or solubilisers) |
| --- | --- | --- |
| – | sericin | successfully dissolved |
| up to 50% | CCCCCCCCCCCCCCCCCC(=O)N[C@@H](CO)[C@H](O)[C@H](O)CCCCCCCCCCCCCC [ceramide-3] | – |
